Among the data in publication PMC2722939 are Km, kcat and kcat/Km values, retold here.

The subject of the data set is O=P(O)(O)O[C@@H]1O[C@H](CO)[C@@H](O)[C@H](O)[C@H]1O. The data set is described as follows: purified protein. The conditions noted are these: 5 μM βG1,6bisP, 2 mM MgCl2, 50 mM K+HEPES pH 7.0, 25 °C.
With “L. lactis β-PGM (wild type) (Lactococcus lactis subsp. lactis Il1403)”, the Km turned out to be 31 ± 2 µM, the catalytic constant (kcat) turned out to be 175 s⁻¹ and the kcat/Km was found to be 6e+06 M⁻¹ s⁻¹.
In the case of “L. lactis β-PGM (wild type) (Lactococcus lactis subsp. lactis Il1403; H20A)”, the Km was determined as 41 ± 3 µM, the turnover number (kcat) came to 0.026 s⁻¹ and the catalytic efficiency (kcat/Km) was 600 M⁻¹ s⁻¹.
As for “L. lactis β-PGM (wild type) (Lactococcus lactis subsp. lactis Il1403; H20N)”, the Michaelis constant (Km) worked out at 170 ± 10 µM, the kcat was determined as 0.62 s⁻¹ and the kcat/Km is 4000 M⁻¹ s⁻¹.
On to “L. lactis β-PGM (wild type) (Lactococcus lactis subsp. lactis Il1403; H20Q)”, for which the Km came to 45 ± 1 µM, the kcat stood at 21.9 s⁻¹ and the kcat/Km turned out to be 500000 M⁻¹ s⁻¹.
Take “L. lactis β-PGM (wild type) (Lactococcus lactis subsp. lactis Il1403; K76A)”: the Km turned out to be 66 ± 1 µM, the kcat was 1.56 s⁻¹ and the kcat/Km amounted to 20000 M⁻¹ s⁻¹.
In the case of “L. lactis β-PGM (wild type) (Lactococcus lactis subsp. lactis Il1403; T16P)”, the Km was 4.8 ± 0.3 µM, the turnover number (kcat) was determined as 0.026 s⁻¹ and the specificity constant (kcat/Km) was 5000 M⁻¹ s⁻¹.

As usually defined, the Km is the substrate concentration at which the rate is half of its maximum. As usually defined, the kcat is the maximal rate divided by the concentration of active sites. For orientation: kcat/Km means the turnover number divided by the Michaelis constant.
